Data on two molecules can be found in article PMC3281905, “Structure-Based Rational Design of a Toll-like Receptor 4 (TLR4) Decoy Receptor with High Binding Affinity for a Target Protein” (PLoS ONE, 2012).

Sequences and labels used below:
B1: myeloid differentiation protein 2 (MD2) (natural protein, human)
chain: QKQYWVCNSSDASISYTYCDKMQYPISINVNPCIELKRSKGLLHIFYIPRRDLKQLYFNLYITVNTMNLPKRKEVICRGSDDDYSFCRALKGETVNTTISFSFKGIKFSKGKYKCVVEAISGSPEEMLFCLEFVILHQPN
notes: human MD2 (myeloid differentiation protein 2); Secreted from insect cells with the vector pAcGP67; also called human MD2; source: monomeric MD2 from Superdex 75)
B2: TLR4 decoy receptor, TV3 (wild-type) (designed binder)
chain: EPCVEVVPNITYQCMELNFYKIPDNLPFSTKNLDLSFNPLRHLGSYSFFSFPELQVLDLSRCEIQTIEDGAYQSLSHLSTLILTGNPIQSLALGAFSGLSSLQKLVAVETNLASLENFPIGHLKTLKELNVAHNLIQSFKLPEYFSNLTNLEHLDLSSNKIQSIYCTDLRVLHQMPLLNLSLDLSLNPMNFIQPGAFKEIRLKELALDTNQLKSVPDGIFDRLTSLQKIWLHTNPWDCSCPRIDYLSRWLNKNSQKEQGSAKCSGSGKPVRSIICP
modifications: limits from the PDB 2Z65 entity (paper residue number = entity position + 26); secreted from insect cells, immobilized by amine coupling

Holding throughout (assay): SPR; Biacore 3000; decoy receptor or variant covalently immobilised on a CM5 chip (EDC/NHS, 500-800 RU); MD2 4 nM to 2 µM in HBS-EP injected at 60 µL/min for 90 sec, 30 min dissociation; 1:1 Langmuir model
What all share (conditions): both partners purified
On the technique in general: SPR reads the build-up and loss of mass on a sensor chip optically.

Test [1] concerns the target TLR4 decoy receptor TV3 F63W/V134L (human | hagfish, UniProt O00206 27-228; O00206 27-228, F63W | V134L).
Test [2] has as its target TLR4 decoy receptor TV3 M41E/H159Q (human | hagfish, UniProt O00206 27-228; O00206 27-228, M41E | H159Q).
In test [3] the target is TLR4 decoy receptor TV3 V134L/H159Q (human | hagfish, UniProt O00206 27-228; O00206 27-228, V134L | H159Q).
Test [4] deals with TLR4 decoy receptor TV3 F63W/D181E (human | hagfish, UniProt O00206 27-228; O00206 27-228, F63W | D181E).
Test [5] concerns the target TLR4 decoy receptor TV3 M41E/F63W (human | hagfish, UniProt O00206 27-228; O00206 27-228, M41E | F63W).
Test [6] deals with TLR4 decoy receptor TV3 H159Q (human | hagfish, UniProt O00206 27-228; O00206 27-228, H159Q).
Test [7] deals with TLR4 decoy receptor TV3 F63L (human | hagfish, UniProt O00206 27-228; O00206 27-228, F63L).
In test [8] the target is TLR4 decoy receptor TV3 S184K (human | hagfish, UniProt O00206 27-228; O00206 27-228, S184K).
For test [9], the target named is TLR4 decoy receptor TV3 D181E (human | hagfish, UniProt O00206 27-228; O00206 27-228, D181E).
Test [10] concerns the target TLR4 decoy receptor TV3 V134L (human | hagfish, UniProt O00206 27-228; O00206 27-228, V134L).
For test [11], the target named is TLR4 decoy receptor TV3 F63W (human | hagfish, UniProt O00206 27-228; O00206 27-228, F63W).
Test [12] concerns the target TLR4 decoy receptor TV3 N156I (human | hagfish, UniProt O00206 27-228; O00206 27-228, N156I).
The target of test [13] is TLR4 decoy receptor TV3 V132F (human | hagfish, UniProt O00206 27-228; O00206 27-228, V132F).
Test [14] has as its target TLR4 decoy receptor TV3 M41E (human | hagfish, UniProt O00206 27-228; O00206 27-228, M41E).
The target of test [15] is B1.

TLR4 decoy receptor TV3 M41E/F63W, sequence (O00206 other isoform, or with tags, fused parts or gaps M41E | F63W | M41E | F63W | M41E F63W): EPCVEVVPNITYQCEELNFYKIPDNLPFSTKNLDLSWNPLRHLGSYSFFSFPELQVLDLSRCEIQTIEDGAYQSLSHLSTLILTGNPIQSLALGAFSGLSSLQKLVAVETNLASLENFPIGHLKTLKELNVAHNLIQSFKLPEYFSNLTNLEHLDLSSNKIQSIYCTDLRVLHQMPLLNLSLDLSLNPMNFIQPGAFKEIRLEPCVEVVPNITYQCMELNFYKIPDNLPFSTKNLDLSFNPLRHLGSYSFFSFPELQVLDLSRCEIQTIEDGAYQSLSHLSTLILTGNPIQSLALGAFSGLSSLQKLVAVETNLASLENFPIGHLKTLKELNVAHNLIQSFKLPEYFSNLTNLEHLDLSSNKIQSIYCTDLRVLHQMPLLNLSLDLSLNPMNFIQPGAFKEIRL
TLR4 decoy receptor TV3 M41E/H159Q, sequence (O00206 other isoform, or with tags, fused parts or gaps M41E | H159Q | M41E | H159Q | M41E H159Q): as the sequence (O00206 other isoform, or with tags, fused parts or gaps M41E | F63W | M41E | F63W | M41E F63W) above, with W37F, H133Q counted along it
TLR4 decoy receptor TV3 M41E, sequence (O00206 other isoform, or with tags, fused parts or gaps M41E | M41E | M41E): as the sequence (O00206 other isoform, or with tags, fused parts or gaps M41E | F63W | M41E | F63W | M41E F63W) above, with W37F counted along it

For the molecule B1, the Kd in test [1] was determined as 283 nM; in [2], 145 nM; in test [3] it was 0.138 nM; in [4], 39 nM; in test [5] it was 0.026 nM; in test [6] it was 4.3 nM. Besides, the Kd in [7] was found to be 43.3 nM; in [8], 183 nM; in test [9] it was 48.2 nM; in [10], 4.11 nM; in test [11] it was 2.84 nM; in test [12] it was 4.07 nM. Besides, the Kd in test [13] was 22.2 nM; in [14] it was 3.21 nM. Moreover, the koff in test [1] worked out at 0.00103 s⁻¹; in [2] it was 0.000461 s⁻¹; in [3], 6.12e-06 s⁻¹; in [4], 2.27e-05 s⁻¹; in test [5], 5.23e-07 s⁻¹; in test [6] it was 1e-05 s⁻¹. In addition, the koff in test [7] stood at 0.00115 s⁻¹; in [8], 0.00141 s⁻¹; in test [9], 0.000924 s⁻¹; in test [10], 0.00011 s⁻¹; in test [11] it was 3.97e-05 s⁻¹; in [12], 8.05e-05 s⁻¹. In addition, the koff in test [13] worked out at 0.00154 s⁻¹; in test [14], 5.29e-05 s⁻¹. Further, the kon in test [1] turned out to be 3660 M⁻¹ s⁻¹; in test [2], 3160 M⁻¹ s⁻¹; in test [3] it was 44100 M⁻¹ s⁻¹; in test [4] it was 583 M⁻¹ s⁻¹; in [5] it was 20100 M⁻¹ s⁻¹; in test [6], 2140 M⁻¹ s⁻¹. The kon in test [7] is 26500 M⁻¹ s⁻¹; in [8], 7660 M⁻¹ s⁻¹; in test [9], 19100 M⁻¹ s⁻¹; in test [10], 26700 M⁻¹ s⁻¹; in [11], 13900 M⁻¹ s⁻¹; in test [12], 19700 M⁻¹ s⁻¹. In addition, the kon in test [13] was determined as 69100 M⁻¹ s⁻¹; in [14], 16400 M⁻¹ s⁻¹.
B2: in test [15], the Kd stood at 78 nM, the koff came out at 0.00222 s⁻¹ and the kon was 28400 M⁻¹ s⁻¹.

As usually defined, the Kd is the constant that tells how readily two partners part at equilibrium. A high value points to weaker binding. In general, koff refers to the first-order rate constant of dissociation. Low readings indicate a long-lived complex, high ones a short-lived complex. The kon is the rate constant with which the complex forms.
